Results reported in publication PMC10419011.

How the values were obtained:
[1] = molecular target: neuropeptide Y (Homo sapiens), P01303; assay: competition; conditions: remark: other sources report otherwise
K^18-TAMRA-NPY = assay: fluorescence polarisation; various concentrations of receptor in small DMPC/DHPC bicelles with 50 nM (K^18-TAMRA)-NPY, 1 h at room temperature, measured at 20 °C; sigmoidal dose-response fit

Binder	Kd [1] [nM]	Kd (K^18-TAMRA-NPY) [nM]
neuropeptide Y receptor Y2, P49146 (protein) MGPIGAEADENQTVEEMKVEQYGPQTTPRGELVPDPEPELIDSTKLIEVQVVLILAYCSIILLGVIGNSLVIHVVIKFKSMRTVTNFFIANLAVADLLVNTLCLPFTLTYTLMGEWKMGPVLCHLVPYAQGLAVQVSTITLTVIALDRHRCIVYHLESKISKRISFLIIGLAWGISALLASPLAIFREYSLIEIIPDFEIVACTEKWPGEEKSIYGTVYSLSSLLILYVLPLGIISFSYTRIWSKLKNHVSPGAANDHYHQRRQKTTKMLVCVVVVFAVSWLPLHAFQLAVDIDSQVLDLKEYKLIFTVFHIIAMCSTFANPLLYGWMNSNYRKAFLSAFRCEQRLDAIHSEVSVTFKAKKNLEVRKNSGPNDSFTEATNV	2.3	–
Y2R_A202^45.49C-Δ6Cys-polyHis, P49146 1-381 (receptor, modifications not checked) MGPIGAEADENQTVEEMKVEQYGPQTTPRGELVPDPEPELIDSTKLIEVQVVLILAYASIILLGVIGNSLVIHVVIKFKSMRTVTNFFIANLAVADLLVNTLALPFTLTYTLMGEWKMGPVLCHLVPYAQGLAVQVSTITLTVIALDRHRAIVYHLESKISKRISFLIIGLAWGISALLASPLAIFREYSLIEIIPDFEIVCCTEKWPGEEKSIYGTVYSLSSLLILYVLPLGIISFSYTRIWSKLKNHVSPGAANDHYHQRRQKTTKMLVSVVVVFAVSWLPLHAFQLAVDIDSQVLDLKEYKLIFTVFHIIAMASTFANPLLYGWMNSNYRKAFLSAFRSEQRLDAIHSEVSVTFKAKKNLEVRKNSGPNDSFTEATNV	–	61.4
